Test results published in patent US20130108636A1.

Biological target: gp120s
Assay: binding assay, method not stated

B1: m36d1 (VHH)
chain: QVQLVQSGGGLVQPGGSLRLSCAASAFDFSDYEMSWVRQAPGKGLEWIGEINDSGNTIYNPSLKSRVTISRDNSKNTLYLQMNTLRAEDTAIYYCAIYGGNSGGEYWGQGTLVTVSSGGGGSGGGGSGGGGSQVQLVQSGGGLVQPGGSLRLSCAASAFDFSDYEMSWVRQAPGKGLEWIGEINDSGNTIYNPSLKSRVTISRDNSKNTLYLQMNTLRAEDTAIYYCAIYGGNSGGEYWGQGTLVTVSS
For B1, the fold decrease in binding compared to m36 was 16 fold.
